# B1: IgG B11: novel human ICAM-1 antibody targeting the B11 epitope, isolated from the naïve antibody library n-CoDeR (antibody, V domains shown)
# VH: EVQLLESGGGLVQPGGSLRLSCAASGFTFSNAWMSWVRQAPGKGLEWVAFIWYDGSNKYYADSVKGRFTISRDNSKNTLYLQMNSLRAEDTAVYYCARYSGWYFDYWGQGTLVTVSS
# VL: QSVLTQPPSASGTPGQRVTISCTGSSSNIGAGYDVHWYQQLPGTAPKLLIYDNNNRPSGVPDRFSGSKSGTSASLAISGLRSEDEADYYCQSYDSSLSAWLFGGGTKLTVLG
# modifications: B11 antibody variable H region; B11 antibody variable L region
# Experiments:
# NCI-H929 myeloma cells = test: Subcutaneous scid myeloma xenograft, NCI-H929; format: in vivo, scid mice; details: 2 mg/kg twice weekly
# Protocol: Antibody treatment with 2 mg/kg B11 or control IgG1 was started at Day 1 and was continued on a twice-weekly intraperitoneal dosing regimen. Mice were sacrificed when tumor sizes reached the ethical limit.
# ARH-77 cells = test: Disseminated scid/ARH-77 model of multiple myeloma; format: in vivo, scid mice; details: i.v. on Days 7, 10, 13, 16; antibody 2 mg/kg, bortezomib 0.5 mg/kg; vs control treatment
# Protocol: ARH-77 cells or RPMI-8226 were injected intravenously into the SCID mice. (A) ARH-77 model. Animals received intravenous injections with antibody at 2 mg/kg or bortezomib (Velcade) at 0.5 mg/kg on Days 7, 10, 13, and 16 (as indicated by arrows in the graph). (B) RPMI-8226-model. B11 or control mAb was administered i.v at 2 mg/kg, twice weekly for 8 weeks, bortezomid, at 1 mg/kg, once weekly for 8 weeks, lenalidomide p.o with 2 mg/kg for 2 cycles consisting of 5 days of treatment and 2 days of wash out, melphalan i.v at 3 mg/kg, once weekly for 8 weeks, and dexamethasone (DXH) at 6 mg/kg/inj 3 times/week for 2 consecutive weeks. There were 6-10 mice per treatment group. Statistical significance was calculated using Log-rank Graphpad Prism software and determined at ***p<0.001. (C) To study the ICAM-1 level on human cells, the cells from different organs were stained and gated for CD38+/mCD45−/B11+. Left panel indicates the percentage of B11 positive cells in CD38+/mCD45 population and right panel the mean fluorescent intensity of the positive cells.
# The anti-myeloma effect of B11 was examined in a disseminated model of multiple myeloma. The early and advanced disseminated model of multiple myeloma was performed at Oncodesign, Dijon, France. Briefly: 1×10^6 (early) or 5×10^6 (advanced) ARH-77 tumor cells in 200 μL of RPMI 1640 were injected intravenously (i.v) into the caudal vein of female scid mice (D0). Tumor cell injections were performed twenty four to forty eight hours after a whole body irradiation of mice (1.8 Gy, ^60Co, INRA, BRETENNIERES). The treatment was started at D5 RPMI-8226 model or D7 (ARH-77 model) […]. B11 or control mAb was administered i.v. at 2 mg/kg, twice weekly for 8 weeks, bortezomib, at 1 mg/kg, once weekly for 8 weeks, lenalidomide p.o with 2 mg/kg for 2 cycles consisting of 5 days of treatment and 2 days of wash out, melphalan i.v. at 3 mg/kg, once weekly for 8 weeks, and dexamethasone at 6 mg/kg 1 injected 3 times a week for 2 consecutive weeks.
# The disseminated model of scid/ARH-77 is a well-established experimental model that resembles human multiple myeloma disease progression and disease manifestation in many respects (33). We utilized this model to further characterize IgG B11 anti-myeloma activity (FIG. 6A). Intravenous injection of irradiated scid mice with 1×10^6 ARH-77 cells was previously shown to result in their dissemination and establishment in mouse bone-marrow, and resulting osteolytic bone-lesions and hypercalcemia, and ultimately, in animal paralysis or difficulty of breathing at which time animals were immediately sacrificed. […]
molecule,measurement,setting,value
B1,reduction of myeloma tumor growth,NCI-H929 myeloma cells,99%
same,animal survival,ARH-77 cells,increased mean survival time
same,time to symptomatic disease onset,ARH-77 cells,doubled the time to symptomatic disease onset
